The labels stand for the following.
T1: CBD–HsCyk-4-Nt-4D (1–288), incubated with Plk1, immobilised (UniProt Q9H0H5 1-288, Ser149 to Asp | Ser157 to Asp | Ser164 to Asp | Ser170 to Asp, incubated with Plk1-T210D (1–306) and ATP; remaining phosphorylation sites not stated)
T1 construct: HsCyk-4/MgcRacGAP N terminus, residues 1–288, four serines changed to aspartate; also called HsCyk-4-4D (with Plk1); source: E. coli BL21 (DE3) RIL, purified on chitin beads, incubated on the beads with Plk1-T210D 1–306 and ATP
T1 sequence (looked up): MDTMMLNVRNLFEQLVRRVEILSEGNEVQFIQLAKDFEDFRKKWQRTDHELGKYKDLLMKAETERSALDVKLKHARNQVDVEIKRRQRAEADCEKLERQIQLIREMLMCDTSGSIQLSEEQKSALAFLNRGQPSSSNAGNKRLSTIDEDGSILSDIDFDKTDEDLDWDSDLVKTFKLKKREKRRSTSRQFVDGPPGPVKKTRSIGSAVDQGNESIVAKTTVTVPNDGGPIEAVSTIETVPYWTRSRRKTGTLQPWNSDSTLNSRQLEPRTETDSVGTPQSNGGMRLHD

T2: CBD–HsCyk-4-Nt (1–288) phosphorylated by Plk1, immobilised (UniProt Q9H0H5 1-288, phosphorylated in vitro by Plk1-T210D (1–306); Ser149, Ser157, Ser164 and Ser170 named as the sites)
T2 construct: HsCyk-4/MgcRacGAP N terminus, residues 1–288; the printed UniProt entry is the human protein; also called HsCyk-4-wt (with Plk1); source: E. coli BL21 (DE3) RIL, purified on chitin beads, phosphorylated on the beads with Plk1-T210D 1–306
T2 sequence (looked up): T1 sequence (looked up) with D149S, D157S, D164S, D170S

T3: CBD–HsCyk-4-Nt-4A (1–288), incubated with Plk1, immobilised (UniProt Q9H0H5 1-288, Ser149 to Ala | Ser157 to Ala | Ser164 to Ala | Ser170 to Ala, incubated with Plk1-T210D (1–306) and ATP; remaining phosphorylation sites not stated)
T3 construct: HsCyk-4/MgcRacGAP N terminus, residues 1–288, four serines changed to alanine; also called HsCyk-4-4A; source: E. coli BL21 (DE3) RIL, purified on chitin beads, incubated on the beads with Plk1-T210D 1–306 and ATP
T3 sequence (looked up): T1 sequence (looked up) with D149A, D157A, D164A, D170A

B1: CBD–HsCyk-4-Nt-4D (1–288), not incubated with Plk1, immobilised (domain or fragment, UniProt Q9H0H5 1-288, looked up)
chain: T1 sequence (looked up)
notes: HsCyk-4/MgcRacGAP N terminus, residues 1–288, four serines changed to aspartate; also called HsCyk-4-4D; source: E. coli BL21 (DE3) RIL, purified on chitin beads, kept on the beads
B2: Ect2-BRCT (1–421), soluble, CBD removed by TEV (domain or fragment, UniProt Q9H8V3-4 1-421, looked up)
chain: MAENSVLTSTTGRTSLADSSIFDSKVTEISKENLLIGSTSYVEEEMPQIETRVILVQEAGKQEELIKALKDIKVGFVKMESVEEFEGLDSPEFENVFVVTDFQDSVFNDLYKADCRVIGPPVVLNCSQKGEPLPFSCRPLYCTSMMNLVLCFTGFRKKEELVRLVTLVHHMGGVIRKDFNSKVTHLVANCTQGEKFRVAVSLGTPIMKPEWIYKAWERRNEQDFYAAVDDFRNEFKVPPFQDCILSFLGFSDEEKTNMEEMTEMQGGKYLPLGDERCTHLVVEENIVKDLPFEPSKKLYVVKQEWFWGSIQMDARAGETMYLYEKANTPELKKSVSMLSLNTPNSNRKRRRLKETLAQLSRETDVSPFPPRKRPSAEHSLSIGSLLDISNTPESSINYGDTPKSCTKSSKSSTPVPSKQSA
notes: Ect2 N terminus with the BRCT repeats, residues 1–421; the printed UniProt entry is the human protein; also called soluble Ect2-BRCT; source: E. coli BL21 (DE3) RIL, purified on chitin beads, eluted by TEV cleavage

Assay [1] has as its target Ect2 Ect2-BRCT, 1-421 (UniProt Q9H8V3). As to the kind of experiment: CBD bead pull-down, Coomassie. Particulars: reference: 4A without Plk1.
For assay [2] the target is unchanged. As to the kind of experiment: CBD bead pull-down, Coomassie or blot. The conditions noted are these: reference: HsCyk-4-Nt without Plk1; sites S149,S157,S164,S170.
The target of assay [3] is B2. Kind of assay: pull-down; 100 nM CBD fusion on chitin beads, with or without 50 nM Plk1-T210D 1–306 and ATP (60 min, 30°C), washed; soluble partner added at equimolar amounts; 20 mM HEPES pH 7.2, 150 mM NaCl, 5 mM MgCl2, 1 mM DTT, 0.1% Triton X-100; 90 min at 4°C; Coomassie staining or Western blot. Particulars: both partners purified. For orientation: A western blot detects proteins with antibodies after separation by electrophoresis.

Assay [4] addresses T1, CBD–HsCyk-4-Nt-4D (1–288), incubated …. The description is as above. The conditions noted are these: both partners purified.
Assay [5] addresses T2, CBD–HsCyk-4-Nt (1–288) phosphorylated …. The description is as above. The conditions noted are these: both partners purified.
The target in assay [6] is T3, CBD–HsCyk-4-Nt-4A (1–288), incubated …. The assay is described as above. Particulars: both partners purified.

Changes are numbered by the printed parent chain.

In the assay with Ect2 Ect2-BRCT, 1-421 [1], “HsCyk-4/MgcRacGAP HsCyk-4-Nt, 1-288 (from UniProt Q9H0H5) 4A treated with Plk1 and ATP” returned a fold change of 3.1 fold.

The molecule “HsCyk-4/MgcRacGAP HsCyk-4-Nt, 1-288 (from UniProt Q9H0H5) HsCyk-4-Nt treated with Plk1-T210D kinase domain and ATP” displayed a fold change with Ect2 Ect2-BRCT, 1-421 [2] of 20.2 fold. Regarding B1, the binding result in assay [3] is listed as “binds”. As for B2, the “fold stimulation of binding upon Plk1 phosphorylation (against the protein without Plk1)” value in assay [4] worked out at 1.7 fold; in assay [5], 20.2 fold; in assay [6], 3.1 fold.
